Results from paper PMC2670261, “Characterization of the interaction between Actinin-Associated LIM Protein (ALP) and the rod domain of α-actinin” (BMC Cell Biology, 2009).

Assays:
[1] = molecular target: ALP107-273 (internal region fragment of actinin-associated LIM protein, residues 107-273) (human); experiment: SPR; Biacore 3000; ALP107-273 or peptide 3 immobilised by amine coupling on CM5; R1-R4 or R2-R3 as soluble analyte; 20 mM Tris pH 7.4, 150 mM NaCl, 0.005% P20; apparent Kd
[2] = molecular target: T1, α-actinin rod domain, spectrin repeats 1–4 (R1-R4) of human α-actinin 2 (Homo sapiens, UniProt P35609); experiment: SPR interaction with α-actinin rod R1-R4; type: binding; details: for Kd: SPR, 20 mM Tris pH 7.4, 150 mM NaCl, 0.005% P20
T1 construct: Rod fragments containing spectrin repeats 1–4 (residues 274–746); His-tag (cleaved yes); made in house; host or cells: Escherichia coli BL21(DE3)
T1 sequence (P35609 274-746): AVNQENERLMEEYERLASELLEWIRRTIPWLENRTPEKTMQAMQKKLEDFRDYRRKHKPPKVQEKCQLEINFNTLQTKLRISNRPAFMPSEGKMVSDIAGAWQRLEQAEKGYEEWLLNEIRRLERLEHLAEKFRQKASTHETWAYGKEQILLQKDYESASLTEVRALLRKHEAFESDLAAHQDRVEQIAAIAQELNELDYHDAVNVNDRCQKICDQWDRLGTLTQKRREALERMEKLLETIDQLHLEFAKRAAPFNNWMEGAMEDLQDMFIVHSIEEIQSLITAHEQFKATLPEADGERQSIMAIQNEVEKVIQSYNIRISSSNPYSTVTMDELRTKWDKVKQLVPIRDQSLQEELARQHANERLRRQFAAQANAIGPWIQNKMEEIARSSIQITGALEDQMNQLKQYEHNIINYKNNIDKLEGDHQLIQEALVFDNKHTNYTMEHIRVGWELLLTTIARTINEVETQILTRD
Source text: (§1) Internal fragments of human ALP (AF039018) and chicken ALP (AJ249218) were cloned into a modified pET24d vector (Novagen, Merck Biosciences, Schwalbach, Germany) as described earlier using BsmBI (NcoI)- NotI cloning sites. Rod fragments containing spectrin repeats 1–4 (residues 274–746) or repeats 2 and 3 (residues 371–637) of human α-actinin 2 have been described previously. A YFP-fusion of ALP107-273 was generated in a pEYFP-C1 vector (Clontech, BD Biosciences) at an EcoRI-BamHI restriction site. The deletion constructs of pEYFP-ALP107-273 were generated by PCR. The α-Actinin-CFP construct is described elsewhere. All constructs were verified by DNA sequencing.
(§2) ALP internal fragments and an α-actinin rod containing the spectrin repeats 1–4 (R1-R4) and a fragment containing spectrin repeats 2 and 3 (R2-R3) were expressed at +37°C for 3–4 h in Escherichia coli BL21(DE3) strain as previously described. Briefly, proteins were purified using nickel nitrilotriacetic acid-agarose (Qiagen) as a first step. The His-tag was removed by tobacco etch virus protease (Invitrogen). For further purification, size exclusion chromatography (Superdex 75 16/60 and 26/60 columns, Amersham Biosciences) for ALP, and ion exchange (ProteinPakQ 8HR columns, Waters) for α-actinin fragments were used. The molecular weight standards for the gel filtration were obtained from Bio-Rad Laboratories. For NMR analysis, ^15N-labelled ALP107-273 and ^15N^13C-labelled ALP107-273 were produced in general M9-media with supplements. Expression was induced with 1 mM isopropyl-1-thio-β-D-galactopyranoside (IPTG) at +37°C for 8 hrs in E. coli BL21(DE3) strain. Low molecular weight markers used in SDS-polyacrylamide electrophoresis were obtained from Amersham Biosciences. Five ALP peptides were purchased from EZBiolab Inc. (Westfield, IN, USA).
A Biacore 3000 system (Biacore, Uppsala, Sweden) was used for surface plasmon resonance (SPR) analysis. Ligand immobilization was performed via amine coupling to gold sensor chips (CM5). […]

[3] = molecular target: α-actinin 2 rod domain, spectrin repeats 1-4 (R1-R4) (human) (UniProt P35609); experiment: SPR; Biacore 3000; α-actinin rod fragment (R1-R4 or R2-R3) immobilised by amine coupling on CM5; ALP107-273 or ALP peptides as soluble analyte; 20 mM Tris pH 7.4, 150 mM NaCl, 0.005% P20; apparent Kd
Chain of α-actinin 2 rod domain, spectrin repeats 1-4 (R1-R4) (human) (P35609 274-746): as above

[4] = Concentration reached after purification; type: physicochemical; details: purified protein fragment
Method: as §2

[5] = molecular target: T2, α-actinin spectrin repeats 2–3 (R2-R3) of human α-actinin 2 (Homo sapiens, UniProt P35609); experiment: SPR interaction with α-actinin R2-R3; type: binding; details: Biacore 3000, R2-R3 immobilized, ALP107-273 as analyte
T2 construct: repeats 2 and 3 (residues 371–637) of human α-actinin 2; His-tag (cleaved yes); made in house; host or cells: Escherichia coli BL21(DE3)
T2 sequence (P35609 371-637): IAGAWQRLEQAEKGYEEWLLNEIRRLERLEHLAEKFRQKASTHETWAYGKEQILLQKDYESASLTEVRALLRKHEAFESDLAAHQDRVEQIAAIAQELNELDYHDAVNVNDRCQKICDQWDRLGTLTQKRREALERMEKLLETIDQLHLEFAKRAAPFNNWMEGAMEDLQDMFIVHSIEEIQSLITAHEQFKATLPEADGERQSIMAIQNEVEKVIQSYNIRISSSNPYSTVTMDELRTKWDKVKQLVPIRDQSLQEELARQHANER
Source text: as §1
ALP internal fragments and an α-actinin rod containing the spectrin repeats 1–4 (R1-R4) and a fragment containing spectrin repeats 2 and 3 (R2-R3) were expressed at +37°C for 3–4 h in Escherichia coli BL21(DE3) strain as previously described. Briefly, proteins were purified using nickel nitrilotriacetic acid-agarose (Qiagen) as a first step. The His-tag was removed by tobacco etch virus protease (Invitrogen). For further purification, size exclusion chromatography (Superdex 75 16/60 and 26/60 columns, Amersham Biosciences) for ALP, and ion exchange (ProteinPakQ 8HR columns, Waters) for α-actinin fragments were used. The molecular weight standards for the gel filtration were obtained from Bio-Rad Laboratories. […]

[6] = system: U2OS cells, α-actinin in actin stress fibres; experiment: Live cell localization of YFP fusion with α-actinin-CFP; type: cell-based, human; details: YFP fusion expressed with α-actinin-CFP in living U2OS cells
Source text: as §1
Human osteosarcoma (U2OS) cells were maintained in Dulbecco's modified Eagle's medium (DMEM) supplemented with 10% fetal bovine serum (Hyclone), 2 mM L-glutamine, penicillin and streptomycin (Sigma-Aldrich). Transfected cells were re-plated on fibronectin (10 μg/ml) coated glass bottom dishes (MatTek). General growth medium was used as imaging medium. The time lapse images were acquired with an IX-71 inverted microscope (Olympus) equipped with a Polychrome IV monochromator (TILL Photonics) with the appropriate filters, an Andor iXon (Andor) camera, a heated sample environment (+37°C) and CO2-control. A PLAPON 60xO TIRFM 60x/1,45 (oil) objective (Olympus) was used. […]

CHO cells, stress fibres = experiment: Localization of YFP-ALP107-273 mutants at stress fibres; type: cell-based; details: YFP fused to ALP107-273 with deletions or mutations; CHO cells 24 h after transfection, 4 h on fibronectin; blinded scoring
Source text: as §1
The pEYFP ALP107-273 and mutants were transfected into CHO cells as described previously. Following 24 hrs transfection, the cells were seeded for 4 hrs on coverslips coated with 10 μg/ml human plasma fibronectin (Sigma) and fixed with 4% paraformaldehyde in 140 mM NaCl, 10 mM Na-Phosphate pH 7.4. The coverslips were coded and the number of cells with YFP localization at stress fibres was counted by two observers who were blinded to the identity of the samples. At least 100 cells were scored from each coverslip, four coverslips were used per transfection, and the experiment was repeated at least three times.

[7] = molecular target: T3, α-actinin 2 rod domain, spectrin repeats 1-4 (R1-R4) (human, UniProt P35609 274-746); experiment: SPR; Biacore 3000; ALP107-273 or peptide 3 immobilised by amine coupling on CM5; R1-R4 or R2-R3 as soluble analyte; 20 mM Tris pH 7.4, 150 mM NaCl, 0.005% P20; apparent Kd; details: both partners purified
T3 construct: α-actinin 2, human, spectrin repeats 1-4, residues 274-746; also called α-actinin rod; α-actinin rod region; source: E. coli BL21(DE3), purified (Ni-NTA, TEV removal of the His-tag, ion exchange)
T3 sequence (P35609 274-746): as the sequence (P35609 274-746) above

Molecule: α-actinin 2 rod domain, spectrin repeats 1-4 (R1-R4) (from UniProt P35609 274-746) (domain or fragment)
- Kd [1]: 4500 nM

Molecule: MNKPEQALLVQIHPLVTEPFMG [scrambled version of peptide 3, scrambled peptide 3 containing the same amino acids in random order, reference compound]
- interaction with the rod domain in SPR ([2]; comparison with peptide 3 (Fig 7D)): did not interact

Molecule: ALP107-273 (internal region fragment of actinin-associated LIM protein, residues 107-273) (domain or fragment)
- Kd [3]: 270 nM

B1: ALP107-273: 167 residue construct of the human ALP internal region, residues 107–273; used as YFP fusion in cells (protein, UniProt Q53GG5 107-273, looked up, fragment)
chain: SEPQDGNYFEHKHNIRPKPFVIPGRSSGCSTPSGIDCGSGRSTPSSVSTVSTICPGDLKVAAKLAPNIPLEMELPGVKIVHAQFNTPMQLYSDDNIMETLQGQVSTALGETPLMSEPTASVPPESDVYRMLHDNRNEPTQPRQSGSFRVLQGMVDDGSDDRPAGTRS
modifications: YFP fusion
notes: 167 residue construct of the human ALP internal region, residues 107–273; used as YFP fusion in cells
- concentration to which the purified fragment could be concentrated [4]: up to 30 mg/ml
- Kd [5]: 6.8 nM
- co-localization with α-actinin [6]: co-localized with α-actinin in the stress fibres
- Kd ([2]; Biacore 3000, CM5 amine coupling, R1-R4 immobilized, ALP107-273 as analyte): 270 nM
- Kd ([2]; Biacore 3000, immobilized ALP107-273, soluble R1-R4): 4500 nM

B2: YS197-198FA: YFP-ALP107-273 point mutant, conserved tyrosine and serine of ZM motif changed to phenylalanine and alanine (protein, UniProt Q53GG5 107-273, looked up, variant Y197F S198A)
chain: SEPQDGNYFEHKHNIRPKPFVIPGRSSGCSTPSGIDCGSGRSTPSSVSTVSTICPGDLKVAAKLAPNIPLEMELPGVKIVHAQFNTPMQLFADDNIMETLQGQVSTALGETPLMSEPTASVPPESDVYRMLHDNRNEPTQPRQSGSFRVLQGMVDDGSDDRPAGTRS
modifications: residues 107-273 YFP fusion
notes: YFP-ALP107-273 point mutant, conserved tyrosine and serine of ZM motif changed to phenylalanine and alanine
- YFP localization at stress fibres (CHO cells, stress fibres): abrogated localization

B3: ALP peptide 3 (residues 175-196) (peptide)
peptide: PLEMELPGVKIVHAQFNTPMQL
notes: source: synthetic peptide, bought: EZBiolab Inc
- Kd [7]: 3000 nM
